These results are taken from publication PMC7939140.

This experiment deals with BG505SOSIP.664 gp140 NFL (native flexible linker version of wild type) (HIV-1 (BG505 isolate, clade A)). The experiment in a line: native gel or EMSA.

As for “BG505SOSIP.664 gp140 NFL (native flexible linker version of wild type) (natural protein)”, the stoichiometry N was 3.

By stoichiometry N is commonly meant the number of molecules, sites or subunits per partner or assembly.
